Assay results: the supplement of paper PMC10724198
± gives the standard deviation of the averaged measurements.

These sequences were tested on Saccharomyces cerevisiae (assay: protein stability index of tFT-peptide fusion (C-terminal peptide) (PSI (0-1 scale)); higher = more stable (slower turnover)). Conditions: genetic background: wild type; temperature: 30 C.
Method: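 Multiplexed protein stability (MPS) profiling in S. cerevisiae. Random 12-aa peptides (tFT-X12 library) are fused to the C-terminus of a sfGFP-mCherry tandem fluorescent timer, after mCherry and a GGGS linker. Cells are FACS-sorted into 8 mCherry/sfGFP bins and deep-sequenced. The protein stability index (PSI) is the read-weighted bin average, scaled from 0 (unstable) to 1 (stable). Only peptides with >10 reads are reported; cells were grown at 30 °C in SC-His with glucose.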
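Note: PSI is a weighted mean of sequencing reads over stability bins, variants kept only with over 10 reads, mCherry proximal and sfGFP distal, peptide attached via GGGS linker.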

Row | Sequence | protein stability index
1 | RGPGSNGSLPWF | 0.689 ± 0.056
2 | KKKKHKNRKEKQ | 0.692 ± 0.019
3 | FFYFSLSLSHFC | 0.496 ± 0.025
4 | LFVSGVPRSWDR | 0.707 ± 0.19
5 | RSRYWRTHGKVN | 0.557 ± 0.028
6 | GLESVGRVSLRG | 0.657 ± 0.0094
7 | TKTNKALKTSKI | 0.699 ± 0.061
8 | AELVVRNGVGGI | 0.831 ± 0.077
9 | ITRDFQLWASDL | 0.708 ± 0.0083
10 | GGARGEDRRAYV | 0.668 ± 0.054
11 | GRLIERCSLRMT | 0.68 ± 0.055
12 | GSSGGVWPDLNY | 0.701 ± 0.012
13 | LVHDQKFSCNWL | 0.74 ± 0.031
14 | PRALSMGGPRYQ | 0.5929 ± 0.0021
15 | DDTSIVRRMQSP | 0.674 ± 0.014
16 | PSPPTALCPPPL | 0.68 ± 0.15
17 | VDGLQYFMYISG | 0.68 ± 0.073
18 | HGERMRKSPREE | 0.672 ± 0.11
19 | LKQHDSNESASR | 0.6565 ± 0.001
20 | LLTGCVPVLIRK | 0.707 ± 0.093
21 | HLKRFLQVHARL | 0.82 ± 0.075
22 | VGWWVAVGWGLG | 0.704 ± 0.067
23 | GGGVRLMSIHRG | 0.662 ± 0.012
24 | PYVAFMLPSPWQ | 0.672 ± 0.033
25 | GAGRGKEREYRP | 0.61356 ± 0.00019

Row | Sequence | protein stability index
26 | RGGERAGETAGQ | 0.695 ± 0.053
27 | SQMMLKQKFLRR | 0.628 ± 0.024
28 | EPRPTPLSTPRH | 0.671 ± 0.094
29 | PGTRNATPRRQP | 0.707 ± 0.04
30 | LWSIEVEKAKQK | 0.708 ± 0.068
31 | QLSRHCYQPSGG | 0.671 ± 0.0073
32 | WGGVRSGGACCA | 0.72 ± 0.075
33 | GQCRFVEDVYVT | 0.685 ± 0.009
34 | LAYIFTPVRTTG | 0.799 ± 0.26
35 | FTPPPPPPPPVL | 0.6691 ± 0.0051
36 | SPTPLDPLRAPL | 0.6902 ± 0.0027
37 | LNWISKQVTEKH | 0.676 ± 0.013
38 | GLGVCGTGIGGV | 0.656 ± 0.014
39 | GTDRRGRDAPHS | 0.586 ± 0.031
40 | DGRLNVCCYPSC | 0.689 ± 0.15
41 | SRSETIQTGIGW | 0.706 ± 0.012
42 | CRRLLIHTALRV | 0.582 ± 0.015
43 | KNCYPTKKIAIK | 0.638 ± 0.016
44 | GLAPYRPVITFS | 0.675 ± 0.002
45 | SWFCSWVVRFFR | 0.691 ± 0.065
46 | PPPPRPAPAPLL | 0.6948 ± 0.0067
47 | GEFARSTRLAWV | 0.682 ± 0.027
48 | LDGLLVCSNWPA | 0.805 ± 0.07
49 | GKLLPCVRGRGL | 0.665 ± 0.024
50 | GGSRRRAVGAGV | 0.709 ± 0.057

Row | Sequence | protein stability index
51 | ASIFPTLKLTYL | 0.713 ± 0.011
52 | PHNSARSLPLHF | 0.717 ± 0.052
53 | SGFQAPGSVASE | 0.623 ± 0.014
54 | HLIQPDPRASNN | 0.751 ± 0.098
55 | SSIVGRLLSTNT | 0.664 ± 0.071
56 | SLRRPPPRSRNG | 0.654 ± 0.048
57 | RGTVPHSLDLYL | 0.679 ± 0.025
58 | LVLVGISCVKGR | 0.597 ± 0.02
59 | VPSLRSTLPPPL | 0.731 ± 0.051
60 | MKRLTCGGFNLE | 0.704 ± 0.03
61 | EKKEINKIKNQN | 0.662 ± 0.028
62 | EVTEIAQFRDKR | 0.7 ± 0.017
63 | MKSRQKPESGPR | 0.6899 ± 0.0056
64 | RSDPLPKTSAAY | 0.644 ± 0.12
65 | SPLPADSHPLPP | 0.667 ± 0.015
66 | VSSVSLRVRVLF | 0.564 ± 0.08
67 | GWRGVGVGGGVC | 0.689 ± 0.017
68 | AGHFRVRWGVWS | 0.651 ± 0.056
69 | NTCGYGRAIKST | 0.687 ± 0.016
70 | ARVAPPWRSTRA | 0.683 ± 0.049
71 | GGGMCGRSGGRR | 0.706 ± 0.011
72 | SGRSGECEGSWD | 0.662 ± 0.13
73 | SPAASPVPLHPR | 0.603 ± 0.15
74 | RVSGSFSCVCES | 0.6814 ± 0.0054
75 | QGRLRLSLLVSG | 0.526 ± 0.0048

Row | Sequence | protein stability index
76 | ERKESKSRKVER | 0.726 ± 0.081
77 | DSLTNAELVFAC | 0.607 ± 0.0068
78 | GGGAGWGWGGRM | 0.673 ± 0.017
79 | FVPRFPGTTINS | 0.681 ± 0.049
80 | NDLYDVLKYLFN | 0.712 ± 0.086
81 | IRSVNFNIFVKR | 0.748 ± 0.057
82 | LLLVLGLSLVGL | 0.564 ± 0.035
83 | GWFWGRGGRGRG | 0.657 ± 0.05
84 | GPSFVVTVGNGG | 0.686 ± 0.02
85 | LFALRLLSREGI | 0.604 ± 0.046
86 | GFLCDTVRLGCA | 0.702 ± 0.058
87 | RRKRQKEGEIRE | 0.7362 ± 0.0064
88 | GGRFGMWRGGQA | 0.7245 ± 0.0064
89 | PSLGLSIPTPLP | 0.6849 ± 0.0046
90 | PPPTPSSLLSTP | 0.701 ± 0.057
91 | PISKLCLTSYEY | 0.697 ± 0.021
92 | PSRSLSPSPPFS | 0.691 ± 0.066
93 | CGVGWGMVEGWR | 0.691 ± 0.016
94 | KRHCDRVLKMWH | 0.641 ± 0.11
95 | GWWGGGGGAWSG | 0.697 ± 0.065
96 | GTQTITAQRAAA | 0.643 ± 0.015
97 | GCFLIANMCLLG | 0.665 ± 0.0035
98 | LGPSTCPCEVQS | 0.677 ± 0.015
